Source: paper PMC11834087, “Use of polyadenosine tail mimetics to enhance mRNA expression from genes associated with haploinsufficiency disorders”

What was measured:
[1] = target: T1, PABPC (PABPC1 RRM1-4) (Homo sapiens, UniProt P11940 1-370); assay: EMSA; RNA 5 nM; 1x binding buffer: 100 mM NaCl, 5 mM MgCl2, 0.5 mM EDTA, 0.01% NP-40, 0.1 mg/mL BSA (from 10x stock), 5% glycerol from RNA mix plus glycerol/PBS from protein stock; pH not stated; 15 min at room temperature; 6% native gel with 0.01% Triton X-100 at 4 C; details: protein: commercial; tags: N-terminal 6xHis-SUMO; label: 3' Cy5
T1 sequence (P11940 1-370): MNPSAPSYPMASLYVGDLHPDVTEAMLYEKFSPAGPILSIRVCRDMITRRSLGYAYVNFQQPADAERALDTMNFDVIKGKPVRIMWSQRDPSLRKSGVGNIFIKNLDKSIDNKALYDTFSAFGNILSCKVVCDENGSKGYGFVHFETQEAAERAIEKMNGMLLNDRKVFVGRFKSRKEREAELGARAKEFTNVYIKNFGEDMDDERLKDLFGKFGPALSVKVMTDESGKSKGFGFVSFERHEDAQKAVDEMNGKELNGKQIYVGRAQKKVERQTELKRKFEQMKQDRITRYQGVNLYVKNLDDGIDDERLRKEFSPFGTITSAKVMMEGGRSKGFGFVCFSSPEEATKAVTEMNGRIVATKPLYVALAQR

[2] = target: T1, PABPC (PABPC1 RRM1-4); assay: EMSA; RNA 10 nM; 1x binding buffer: 100 mM NaCl, 5 mM MgCl2, 0.5 mM EDTA, 0.01% NP-40, 0.1 mg/mL BSA (from 10x stock), 5% glycerol from RNA mix plus glycerol/PBS from protein stock; pH not stated; 15 min at room temperature; 6% native gel with 0.01% Triton X-100 at 4 C; details: protein: commercial; tags: N-terminal 6xHis-SUMO; label: 3' Cy5

Row | Binder | Kd [1] | Kd [2]
1 | AAAAAAAAAAAAAAA (XNA, 2'-O-methyl and phosphorothioate on the first three nucleotides (mA*mA*mA*A12)) [3NT Mod poly(A)15] | 54 nM | 
2 | AAAAAAAAAAAAAAA (XNA, 2'-O-methyl and phosphorothioate on all 15 nucleotides) [fully modified poly(A)15] | 85 nM | 
3 | AAAAAAAAAAAAAAA (ssRNA) [unmodified poly(A)15] |  | 110 nM
